The record followed here is PMC11461981 (Scientific Reports, 2024).

Like-named read-outs stand apart in the source and are kept apart here.

Experiment [1] concerns the target FAM-labeled phosphopeptide derived from C-terminal AHA2 (FAM-TPSHYpTV) (Arabidopsis thaliana). The experiment can be described thus: fluorescence polarisation. Background: Polarisation of emitted light reports the rotation of a fluorescent probe.
Experiment [2] shares this target. The experiment can be described thus: fluorescence polarisation. The source holds these as a separate data set.
The target is the same in experiment [3]. The experiment can be described thus: fluorescence polarisation. The source holds these as a separate data set.
For experiment [4] the target is unchanged. Put plainly: fluorescence polarisation. This is another data set of the same source.
The target of experiment [5] is 14-3-3φ (Arabidopsis thaliana, UniProt P19456+P46077). In kind it is binding.
14-3-3φ, sequence (P46077 whole entry, other chains not shown): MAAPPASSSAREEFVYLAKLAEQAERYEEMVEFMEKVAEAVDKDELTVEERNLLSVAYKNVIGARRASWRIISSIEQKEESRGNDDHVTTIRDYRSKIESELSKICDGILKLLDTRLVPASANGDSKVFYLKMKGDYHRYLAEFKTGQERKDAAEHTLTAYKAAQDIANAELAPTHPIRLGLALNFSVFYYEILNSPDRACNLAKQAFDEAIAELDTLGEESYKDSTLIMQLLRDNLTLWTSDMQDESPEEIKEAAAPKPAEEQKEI

For orientation: Kd means the constant that tells how readily two partners part at equilibrium. For the compound “recombinant Arabidopsis thaliana His-14-3-3φ (from UniProt P46077 1-267) (natural protein)”, the Kd was 890 nM in experiment [1], 150 nM in experiment [2], 530 nM in experiment [3] and 160 nM in experiment [4].
With `C=CC(C)(C)OC[C@H]1O[C@H](O[C@@H]2C3=C([C@H](C)COC(C)=O)C[C@H](O)[C@]3(C)/C=C3/[C@@H](COC)CC[C@H]3[C@@H](C)[C@H]2O)[C@H](O)[C@@H](OC(C)=O)[C@@H]1O` [FC-A, Fusicoccin-A], the Kd in experiment [5] was found to be 150 ± 30 nM.
